From the supplement of paper PMC9732359
± gives the uncertainty stated by the source.

Assay: protein stability index of a GFP-peptide fusion (yeast GPS) (PSI 1-4); higher = more stable; sorted into four equal gates, so the index is relative within each strain
Conditions: doa10∆
In short: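 Sequencing reads from sorted gates were used to score each peptide. The library consisted of tiled 17-residue yeast protein peptides fused downstream of GFP on a Cherry-expressing plasmid, pooled and carried in yeast. Mid-log cultures in leucine-free medium were split into four equal gates by GFP/Cherry ratio, and each gate's plasmids were PCR-amplified and Illumina-sequenced. The protein stability index adds up, over all gates, the read frequency multiplied by the gate number.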

| Sequence | protein stability index |
| --- | --- |
| YGEYPPTKLLVSEVAKI [PRE8] | 2.53 ± 0.084 |
| YGFEDESAPITAEDSWA [RPB2] | 3.06 ± 0.058 |
| YGFKQEIFDVTSNGLKK [FAS1] | 2.98 ± 0.12 |
| YGKVYKAKRQINSGTNS [SSN3] | 2.23 ± 0.066 |
| YGQRAVLKFAAHTGATP [RPS0B] | 2.27 ± 0.055 |
| YGTENKDGEDIIFNYVP [CSL4] | 3.3 ± 0.14 |
| YGYPSYSTIRQLVYKRG [RPL7A] | 1.27 ± 0.061 |
| YGYWFDCRMGNFYIQYD [AAR2] | 2.51 ± 0.048 |
| YHFPIFNKYADPTLTTT [RPN4] | 2.05 ± 0.037 |
| YHGLYTNYEMSYWQKSY [LIN1] | 1.75 ± 0.046 |
| YIDIRTNNVLRKLGLLG [MTW1] | 1.49 ± 0.053 |
| YIDYSSKRYIPSVNDFV [RRP40] | 2.51 ± 0.048 |
| YIEDGRNPDIYTREFVE [NUT2] | 3.39 ± 0.066 |
| YIFCISRTIGMVVNGPI [SCL1] | 1.45 ± 0.038 |
| YIIQGSNTNDNISIITL [RGR1] | 2.77 ± 0.075 |
| YIKNILEAPVKSIENPT [YLR335W/NUP2] | 2.38 ± 0.061 |
| YISFIKDDRFVPVRKFK [RPN2] | 2.41 ± 0.048 |
| YISKIGEKIDSNKPIFL [SWI1] | 3.02 ± 0.084 |
| YITLKATFLKDDLPYYV [QCR2] | 2.42 ± 0.047 |
| YKAQADTFYMNVESVGS [RPB3] | 2.75 ± 0.088 |
| YKCTAAMEKYLLSKSKI [MTW1] | 2.21 ± 0.038 |
| YKEIRDVSRVAAVETLY [RPL20A] | 1.95 ± 0.067 |
| YKKSTENESTNYQYKIQ [MED7] | 2.58 ± 0.046 |
| YKNHELLKLERKKTEAV [SNF2] | 3.14 ± 0.081 |

| Sequence | protein stability index |
| --- | --- |
| YLADDIDADSLEDIYTS [RPL5] | 2.68 ± 0.095 |
| YLEELQRKKQSDVLRFL [RPL15A] | 1.38 ± 0.16 |
| YLHQNWVLHRDLKPANI [SSN3] | 2.23 ± 0.12 |
| YLINGKRFKRKDNAKIS [SRP68] | 1.36 ± 0.075 |
| YLKDNITLLTRQRELLI [GRR1] | 2.15 ± 0.061 |
| YLLTQQQIWKSPNFKNY [SOH1] | 1.73 ± 0.047 |
| YLQETAISGKKTTYYYY [RPC82] | 2.77 ± 0.079 |
| YMDCLLYDLRASYAKIE [SNU114] | 1.84 ± 0.074 |
| YMQRTVEEAHDFNMKLA [RPB2] | 3.09 ± 0.098 |
| YMRKQVGVGKLNKLYGG [RPS19A] | 2.99 ± 0.16 |
| YNILGNLGIPKIAYRGV [SSN2] | 2.55 ± 0.12 |
| YNMYDAYGNWFNGLKPL [PRP8] | 2.93 ± 0.06 |
| YNTRKNAVTAAAANNNI [GAL11] | 2.19 ± 0.046 |
| YPLLIRMSYGSHDKKTK [SRP14] | 2.61 ± 0.06 |
| YPLWVMAKQLIRLANES [CSN12] | 2.08 ± 0.07 |
| YPSKTLKTDGVRAVSIT [FAS2] | 2.12 ± 0.078 |
| YPVRIPRLDTSKEFSAY [YJR042W/NUP85] | 2.84 ± 0.077 |
| YQELFIQPKNSDDQQEA [YML103C/NUP188] | 2.68 ± 0.066 |
| YQKKQYKDSLALINDLL [RPN6] | 2.4 ± 0.26 |
| YQLNDRNVTKGDIVRML [SMC3] | 2.72 ± 0.24 |
| YQSLKQIVQVLKQPPFQ [SSN8] | 1.43 ± 0.082 |
| YQSRGIDAMKAVAEAYN [RPN6] | 2.87 ± 0.088 |
| YQTRARQKARTDAHTPL [RPR2] | 3.29 ± 0.1 |
| YQVDEDVKSSLSKVFSD [YJL039C/NUP192] | 3.23 ± 0.17 |

| Sequence | protein stability index |
| --- | --- |
| YQVEYAFKATNQTNINS [SCL1] | 2.97 ± 0.072 |
| YQWRDLIARRDDESPRF [RRP6] | 3.23 ± 0.077 |
| YRKTEGIFEKAKAKAVT [YMR153W/NUP53] | 2.56 ± 0.09 |
| YRPLTPSSEVYSPIEKE [RRP6] | 2.74 ± 0.071 |
| YRSHIFATNEERQMNFL [SWI3] | 3.24 ± 0.091 |
| YSEHLKPYDINVVLVTN [DIS3] | 1.77 ± 0.071 |
| YSIALSNVAAIFKGIGG [GAL11] | 1.52 ± 0.08 |
| YSNEPFNTNFDDEFGDL [SNF6] | 3.02 ± 0.1 |
| YSPIEKESPWKILMYQY [RRP6] | 1.75 ± 0.063 |
| YSPSNEISISFDVNNID [YDL116W/NUP84] | 2.4 ± 0.095 |
| YSPTSPSYSPTSPGYSP [RPO21] | 2.8 ± 0.044 |
| YSPTSPSYSPTSPSYSP [RPO21] | 2.756 ± 0.027 |
| YSQSPPRSPGRSPTRRL [SMC4] | 2.57 ± 0.15 |
| YSTCPSETDLNDIPLGS [SRB8] | 2.52 ± 0.13 |
| YSVLLESPLSVAIQQGD [YML103C/NUP188] | 1.23 ± 0.091 |
| YTEFIDSFIEKIIPKDI [ITC1] | 2.79 ± 0.12 |
| YTEQFQHYKNNSISSQP [SSN2] | 2.76 ± 0.14 |
| YTFKTSMRVKPSASLKL [YMR129W/POM152] | 2.42 ± 0.16 |
| YVDFVPMYKELWINYIK [POP4] | 2.33 ± 0.065 |
| YVQVRQPIFVAHTAGRY [RPS5] | 1.7 ± 0.064 |
| YYNEISRDLDISSSTQC [POP6] | 1.95 ± 0.091 |
| YYYNTKIYKLENGERKL [YMR129W/POM152] | 3.03 ± 0.05 |

Same assay, conditions: pdr5∆

| Sequence | protein stability index |
| --- | --- |
| YGEYPPTKLLVSEVAKI [PRE8] | 2.81 ± 0.13 |
| YGFEDESAPITAEDSWA [RPB2] | 3.16 ± 0.055 |
| YGFKQEIFDVTSNGLKK [FAS1] | 3.3 ± 0.083 |
| YGKVYKAKRQINSGTNS [SSN3] | 2.04 ± 0.058 |
| YGQRAVLKFAAHTGATP [RPS0B] | 2.88 ± 0.039 |
| YGTENKDGEDIIFNYVP [CSL4] | 3.21 ± 0.1 |
| YGYPSYSTIRQLVYKRG [RPL7A] | 1.52 ± 0.046 |
| YGYWFDCRMGNFYIQYD [AAR2] | 2.08 ± 0.048 |
| YHFPIFNKYADPTLTTT [RPN4] | 2.22 ± 0.048 |
| YHGLYTNYEMSYWQKSY [LIN1] | 2.08 ± 0.038 |
| YIDIRTNNVLRKLGLLG [MTW1] | 1.76 ± 0.069 |
| YIDYSSKRYIPSVNDFV [RRP40] | 2.83 ± 0.051 |
| YIEDGRNPDIYTREFVE [NUT2] | 3.38 ± 0.054 |
| YIFCISRTIGMVVNGPI [SCL1] | 1.54 ± 0.047 |
| YIIQGSNTNDNISIITL [RGR1] | 2.29 ± 0.083 |
| YIKNILEAPVKSIENPT [YLR335W/NUP2] | 2.33 ± 0.063 |
| YISFIKDDRFVPVRKFK [RPN2] | 2.82 ± 0.039 |
| YISKIGEKIDSNKPIFL [SWI1] | 2.86 ± 0.06 |
| YITLKATFLKDDLPYYV [QCR2] | 2.17 ± 0.049 |
| YKAQADTFYMNVESVGS [RPB3] | 2.34 ± 0.058 |
| YKCTAAMEKYLLSKSKI [MTW1] | 2.58 ± 0.056 |
| YKEIRDVSRVAAVETLY [RPL20A] | 2.19 ± 0.081 |
| YKKSTENESTNYQYKIQ [MED7] | 2.48 ± 0.045 |

| Sequence | protein stability index |
| --- | --- |
| YKNHELLKLERKKTEAV [SNF2] | 3.17 ± 0.074 |
| YLADDIDADSLEDIYTS [RPL5] | 1.96 ± 0.08 |
| YLEELQRKKQSDVLRFL [RPL15A] | 2.25 ± 0.21 |
| YLHQNWVLHRDLKPANI [SSN3] | 2.74 ± 0.13 |
| YLINGKRFKRKDNAKIS [SRP68] | 1.58 ± 0.096 |
| YLKDNITLLTRQRELLI [GRR1] | 2.25 ± 0.069 |
| YLLTQQQIWKSPNFKNY [SOH1] | 1.62 ± 0.05 |
| YLQETAISGKKTTYYYY [RPC82] | 3.02 ± 0.14 |
| YMDCLLYDLRASYAKIE [SNU114] | 2.32 ± 0.076 |
| YMQRTVEEAHDFNMKLA [RPB2] | 3.04 ± 0.1 |
| YMRKQVGVGKLNKLYGG [RPS19A] | 2.48 ± 0.17 |
| YNILGNLGIPKIAYRGV [SSN2] | 2.48 ± 0.12 |
| YNMYDAYGNWFNGLKPL [PRP8] | 3.36 ± 0.093 |
| YNTRKNAVTAAAANNNI [GAL11] | 2.52 ± 0.044 |
| YPLLIRMSYGSHDKKTK [SRP14] | 2.49 ± 0.069 |
| YPLWVMAKQLIRLANES [CSN12] | 1.41 ± 0.047 |
| YPSKTLKTDGVRAVSIT [FAS2] | 2.3 ± 0.087 |
| YPVRIPRLDTSKEFSAY [YJR042W/NUP85] | 2.4 ± 0.061 |
| YQELFIQPKNSDDQQEA [YML103C/NUP188] | 2.31 ± 0.061 |
| YQKKQYKDSLALINDLL [RPN6] | 2.68 ± 0.19 |
| YQLNDRNVTKGDIVRML [SMC3] | 3.03 ± 0.17 |
| YQSLKQIVQVLKQPPFQ [SSN8] | 2.22 ± 0.11 |
| YQSRGIDAMKAVAEAYN [RPN6] | 3.1 ± 0.083 |

| Sequence | protein stability index |
| --- | --- |
| YQTRARQKARTDAHTPL [RPR2] | 3.14 ± 0.09 |
| YQVDEDVKSSLSKVFSD [YJL039C/NUP192] | 3.42 ± 0.14 |
| YQVEYAFKATNQTNINS [SCL1] | 3.19 ± 0.056 |
| YQWRDLIARRDDESPRF [RRP6] | 3.42 ± 0.067 |
| YRKTEGIFEKAKAKAVT [YMR153W/NUP53] | 2.54 ± 0.12 |
| YRPLTPSSEVYSPIEKE [RRP6] | 3.03 ± 0.064 |
| YRSHIFATNEERQMNFL [SWI3] | 2.69 ± 0.081 |
| YSEHLKPYDINVVLVTN [DIS3] | 2.98 ± 0.094 |
| YSIALSNVAAIFKGIGG [GAL11] | 1.55 ± 0.076 |
| YSNEPFNTNFDDEFGDL [SNF6] | 3 ± 0.093 |
| YSPIEKESPWKILMYQY [RRP6] | 1.89 ± 0.062 |
| YSPSNEISISFDVNNID [YDL116W/NUP84] | 2.62 ± 0.071 |
| YSPTSPSYSPTSPGYSP [RPO21] | 2.94 ± 0.037 |
| YSPTSPSYSPTSPSYSP [RPO21] | 2.976 ± 0.026 |
| YSQSPPRSPGRSPTRRL [SMC4] | 3.19 ± 0.11 |
| YSTCPSETDLNDIPLGS [SRB8] | 2.72 ± 0.18 |
| YSVLLESPLSVAIQQGD [YML103C/NUP188] | 1.16 ± 0.063 |
| YTEFIDSFIEKIIPKDI [ITC1] | 2.11 ± 0.1 |
| YTEQFQHYKNNSISSQP [SSN2] | 2.95 ± 0.11 |
| YTFKTSMRVKPSASLKL [YMR129W/POM152] | 2.6 ± 0.11 |
| YVDFVPMYKELWINYIK [POP4] | 2.42 ± 0.056 |
| YVQVRQPIFVAHTAGRY [RPS5] | 1.84 ± 0.059 |
| YYNEISRDLDISSSTQC [POP6] | 2.56 ± 0.073 |
